Target: the molecule itself
Assay: crystal structure

B1: MthK K^+ channel ion conduction pore, S68R V77C mutant (domain or fragment, Methanobacterium thermoautotrophicum)
chain: VPATRILLLVLAVIIYGTAGFHFIEGESWTVSLYWTFVTIATVGYGDYSPRTPLGMYFTCTLIVLGIGTFAVAVERLLEFLI
binding result: binds

From publication PMC2918291 (Nature structural & molecular biology, 2010)
